{"source": "patent US20190055314A1", "about": "(ADAGENE, published 2019)", "target": "T1, human CD137 ligand (human, UniProt P41273 71-254, limits assumed, biotinylated in Example 6)", "T1 construct": "also called HuCD137L; biotinylated CD137L", "T1 sequence (P41273 71-254 limits assumed)": "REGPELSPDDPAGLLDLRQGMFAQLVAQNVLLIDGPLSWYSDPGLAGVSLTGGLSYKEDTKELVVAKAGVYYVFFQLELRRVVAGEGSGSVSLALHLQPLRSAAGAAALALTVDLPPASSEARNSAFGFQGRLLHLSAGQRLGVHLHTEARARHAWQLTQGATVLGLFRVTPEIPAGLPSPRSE", "assay": "flow cytometry", "data": [{"binder": "full-length mouse CD137 on the cell surface (receptor) VQNSCDNCQPGTFCRKYNPVCKSCPPSTFSSIGGQPNCNICRVCAGYFRFKKFCSSTHNAECECIEGFHCLGPQCTRCEKDCRPGQELTKQGCKTCSLGTFNDQNGTGVCRPWTNCSLDGRSVLKTGTTEKDVVCGPPVVSFSPSTTISVTPEGG", "values": [{"measurement": "binding result", "value": "no binding"}]}]}
